Patent publication US10059928B2, “Polymerases” (Illumina Cambridge Limited, priority 2005, dated 2018)
Residue numbers refer to the chain shown, from its start. Numbers in names are those of the source.

B1: wild-type 9°N-7 polymerase: Wild-type family B DNA polymerase from Thermococcus sp. 9°N-7 (protein, UniProt Q56366 1-775, looked up)
DNA polymerase: MILDTDYITENGKPVIRVFKKENGEFKIEYDRTFEPYFYALLKDDSAIEDVKKVTAKRHGTVVKVKRAEKVQKKFLGRPIEVWKLYFNHPQDVPAIRDRIRAHPAVVDIYEYDIPFAKRYLIDKGLIPMEGDEELTMLAFDIETLYHEGEEFGTGPILMISYADGSEARVITWKKIDLPYVDVVSTEKEMIKRFLRVVREKDPDVLITYNGDNFDFAYLKKRCEELGIKFTLGRDGSEPKIQRMGDRFAVEVKGRIHFDLYPVIRRTINLPTYTLEAVYEAVFGKPKEKVYAEEIAQAWESGEGLERVARYSMEDAKVTYELGREFFPMEAQLSRLIGQSLWDVSRSSTGNLVEWFLLRKAYKRNELAPNKPDERELARRRGGYAGGYVKEPERGLWDNIVYLDFRSLYPSIIITHNVSPDTLNREGCKEYDVAPEVGHKFCKDFPGFIPSLLGDLLEERQKIKRKMKATVDPLEKKLLDYRQRAIKILANSFYGYYGYAKARWYCKECAESVTAWGREYIEMVIRELEEKFGFKVLYADTDGLHATIPGADAETVKKKAKEFLKYINPKLPGLLELEYEGFYVRGFFVTKKKYAVIDEEGKITTRGLEIVRRDWSEIAKETQARVLEAILKHGDVEEAVRIVKEVTEKLSKYEVPPEKLVIHEQITRDLRDYKATGPHVAVAKRLAARGVKIRPGTVISYIVLKGSGRIGDRAIPADEFDPTKHRYDAEYYIENQVLPAVERILKAFGYRKEDLRYQKTKQVGLGAWLKVKGKK
B2: R743A: 9°N-7 YAV C223S exo- polymerase with alanine substitution at Arg743 in the thumb subdomain (protein)
chain: B1 DNA polymerase with D141S, E143S, C223S, L408Y, Y409A, P410V, A485L, R743A
modifications: Codon optimised thumb mutant polymerase
notes: 9°N-7 YAV C223S exo- polymerase with alanine substitution at Arg743 in the thumb subdomain

Tests used:
[1] = molecular target: DNA; details: wild-type enzyme; Southworth et al. 1996; read-out: Kd (affinity for DNA); cited from earlier work
[2] = system: ffT-N3-cy3 incorporation into A template hairpin oligo 815; test: Incorporation kinetics of ffT-N3-cy3 (NUNC tube assay, Michaelis plots); format: biochemical; details: 45° C., [DNA]<<[pol] or [ffNTP]
Experimental: The kinetic characterization of the enzymes was conducted using NUNC tube assay and involved the measurement of rate constants for the first order incorporation of ffT N3 cy3 where [DNA]<<[pol] or [ffNTP], at a variety of [ffTTP]. Below is described the methodology used for each of the three polymerases tested.
Six (1×8) NUNC nucleolink strips were functionalized with 2 pmoles of 5′-amino A template hairpin oligo 815 (5′ H2N-[…] ATGCACATCAGCG-3′) (SEQ ID NO: 18), according to the manufacturer's protocol.
Each strip was employed for a time-course experiment at a particular (ffT-N3-cy3). […]
Time-courses were initiated by addition of a 20 μl aliquot of 2× enzymology mix (X μM ffT-N3-cy3, 1.1 μM polymerase in enzymology buffer) pre-equilibrated at 45° C. for 2 minutes using an 8-channel multipipette in order to start reactions in individual wells at identical time-points. […] After reactions in all 8 wells stopped, strips were washed with […] high salt wash (10 mM Tris pH 8.0, 1 M NaCl, 10 mM EDTA) and then […] MilliQ water and then scanned on a Typhoon fluorescence imager (Cy3 filter, PMT=500 V). Fluorescence intensities in each well were quantified using Imagequant. Plotting the variation in Cy3 fluorescence intensity vs. time generates time-course graphs. […]

[3] = system: 10A hairpin DNA; test: Single base incorporation assay for purified polymerases where [DNA] is greater than [pol]; format: biochemical; details: 4 nM purified enzyme, 2 μM ffT-N3-cy3
Experimental: The activity of the purified enzyme preparations of Clone 9 polymerase (YAV C223S exo-) and the thumb sub-domain mutants K705A, R713A and R743A was measured using the single base incorporation assay as described in WO 2005/024010. The experiment was carried out such that the respective concentrations of DNA and polymerase were at a ratio of approximately 5:1. Thus, the ability of the enzyme to incorporate nucleotides into multiple DNA template molecules in a single reaction cycle was investigated. 30 minute incubations were run with 4 nM purified enzyme in the presence of 20 nM 10A hairpin DNA (^32P-labelled) and 2 μM ffT-N3-cy3, aliquots of the reaction mixture were withdrawn at 0, 15, 30, 60, 180, 480, 900 and 1800 s intervals and run on a 12% acrylamide gel.
The band intensities were quantified using Imagequant and the fluorescence intensity, converted into percentage completion (based on the relative intensities of the starting material and final product bands on the gel) plotted versus incubation time to generate the timecourses shown in FIG. 5.

[4] = system: 10A hairpin DNA; test: Single base incorporation assay, crude enzyme preparations (normalised concentrations); format: biochemical; details: first base incorporation of ffTTP
Experimental: The activity of the crude enzyme preparations (normalised concentrations) was measured using the single base incorporation assay as described in WO 2005/024010. 10 minute incubations were run with either 30 or 3 μg/ml crude enzyme preparation in the presence of 2 μM ffT-N3-cy3 and 20 nM 10A hairpin DNA (^32P-labelled), aliquots of the reaction mixture were withdrawn at 0, 30, 60, 180 and 600 s and run on a 12% acrylamide gel.
The band intensities were quantified using Imagequant and the fluorescence intensity plotted versus incubation time to generate the time-courses shown in FIG. 4.

[5] = system: surface-coupled A-template hairpin (oligo 815); test: NUNC tube assay using crude protein preparation: incorporation of ffTTP into surface-coupled hairpin; format: biochemical; details: crude enzyme, 5 μM ffT-N3-647, 45° C., 30 minutes; samples not normalised for concentration
Experimental: Small 5 ml cultures of the mutant enzymes (along with a culture of YAV C223S exo- for direct comparison) were taken through a quick purification as outlined in WO 2005/024010 up until the heat treatment step. At this point, the samples were considered to be sufficiently pure to test their activity.
The buffers for each of the crude preparations were exchanged into enzymology buffer (50 mM Tris pH 8.0, 6 mM MgSO4, 1 mM EDPA, 0.05% Tween20) using an S300 gel filtration spin-column. The samples were not normalised for concentration. The test employed was a simple incorporation of ffTTP into surface-coupled A-template hairpin. 2 pmoles of 5′-amino oligo 815 (5′-[…] […]-3′) (SEQ ID NO: 17) was coupled to a NUNC-nucleolink strip according to the manufacturers protocol.
Once washed, each well was incubated with a 20 µl aliquot of a crude enzyme preparation (identity of enzyme listed below) and 5 µM ffT-N3-647. The strip was then incubated at 45° C. for 30 minutes. The experiment was performed in duplicate. Upon completion of the 30 minute incubation, wells were washed with 3×100 µl of high salt wash buffer (10 mM Tris pH 8.0, 1M NaCl, 10 mM EDTA) and then 3×100 µl of MilliQ water. Strips were scanned on a typhoon fluorescence imager CY5 filter, PMT=450 V).
The fluorescence density is proportional to the amount of ffTTP incorporation—the darker the well, the greater the level of incorporation. […]

| activity relative to YAV (in words) [4] | Molecule | Kd [1] | kpol [2] | amplitude of the burst (exponential) phase, percentage completion ([3]; 20 nM 10A hairpin DNA (ratio 5:1)) | observed rate constant kobs for the burst phase ([3]; crude fitting of timecourses, 20 nM 10A hairpin DNA) | improvement in level of incorporation over clone 9 [5] |
| --- | --- | --- | --- | --- | --- | --- |
|  | B1 | 0.05 nM |  |  |  |  |
| comparable activities to YAV | B2 |  | 0.068 s⁻¹ | ~90% | ~0.004 s⁻¹ | ~45% |
